This test concerns the target ectodomain of CD147 (CD147^ECT, residues 22-205), wild type (human) (UniProt P35613).

Substance “ectodomain of CD147 (CD147^ECT, residues 22-205), wild type (from UniProt P35613-2 22-205) (domain or fragment)” had an MMP-2 production of fibroblasts co-cultured with K7721-WT cells (full-length WT CD147 on cells) treated with different concentrations of Cu2+ up to 30 uM, gelatin zymography of 2.2 fold.

The record behind these values is publication PMC5584238.
